{"source": "paper PMC7129694", "about": "(Clinical Microbiology and Infection, 2005)", "binders": {"B1": {"name": "Purified recombinant human cytokeratin 10 (natural protein, UniProt P13645 1-584, looked up)", "chain": "MSVRYSSSKHYSSSRSGGGGGGGGCGGGGGVSSLRISSSKGSLGGGFSSGGFSGGSFSRGSSGGGCFGGSSGGYGGLGGFGGGSFRGSYGSSSFGGSYGGIFGGGSFGGGSFGGGSFGGGGFGGGGFGGGFGGGFGGDGGLLSGNEKVTMQNLNDRLASYLDKVRALEESNYELEGKIKEWYEKHGNSHQGEPRDYSKYYKTIDDLKNQILNLTTDNANILLQIDNARLAADDFRLKYENEVALRQSVEADINGLRRVLDELTLTKADLEMQIESLTEELAYLKKNHEEEMKDLRNVSTGDVNVEMNAAPGVDLTQLLNNMRSQYEQLAEQNRKDAEAWFNEKSKELTTEIDNNIEQISSYKSEITELRRNVQALEIELQSQLALKQSLEASLAETEGRYCVQLSQIQAQISALEEQLQQIRAETECQNTEYQQLLDIKIRLENEIQTYRSLLEGEGSSGGGGRGGGSFGGGYGGGSSGGGSSGGGHGGGHGGSSGGGYGGGSSGGGSSGGGYGGGSSSGGHGGSSSGGYGGGSSGGGGGGYGGGSSGGGSSSGGGYGGGSSSGGHKSSSSGSVGESSSKGPRY"}}, "molecular_target": "Purified recombinant rClfB protein (clumping factor B of Staphylococcus aureus) (Staphylococcus aureus, UniProt O86476 45-877)", "sequence (O86476 45-877)": "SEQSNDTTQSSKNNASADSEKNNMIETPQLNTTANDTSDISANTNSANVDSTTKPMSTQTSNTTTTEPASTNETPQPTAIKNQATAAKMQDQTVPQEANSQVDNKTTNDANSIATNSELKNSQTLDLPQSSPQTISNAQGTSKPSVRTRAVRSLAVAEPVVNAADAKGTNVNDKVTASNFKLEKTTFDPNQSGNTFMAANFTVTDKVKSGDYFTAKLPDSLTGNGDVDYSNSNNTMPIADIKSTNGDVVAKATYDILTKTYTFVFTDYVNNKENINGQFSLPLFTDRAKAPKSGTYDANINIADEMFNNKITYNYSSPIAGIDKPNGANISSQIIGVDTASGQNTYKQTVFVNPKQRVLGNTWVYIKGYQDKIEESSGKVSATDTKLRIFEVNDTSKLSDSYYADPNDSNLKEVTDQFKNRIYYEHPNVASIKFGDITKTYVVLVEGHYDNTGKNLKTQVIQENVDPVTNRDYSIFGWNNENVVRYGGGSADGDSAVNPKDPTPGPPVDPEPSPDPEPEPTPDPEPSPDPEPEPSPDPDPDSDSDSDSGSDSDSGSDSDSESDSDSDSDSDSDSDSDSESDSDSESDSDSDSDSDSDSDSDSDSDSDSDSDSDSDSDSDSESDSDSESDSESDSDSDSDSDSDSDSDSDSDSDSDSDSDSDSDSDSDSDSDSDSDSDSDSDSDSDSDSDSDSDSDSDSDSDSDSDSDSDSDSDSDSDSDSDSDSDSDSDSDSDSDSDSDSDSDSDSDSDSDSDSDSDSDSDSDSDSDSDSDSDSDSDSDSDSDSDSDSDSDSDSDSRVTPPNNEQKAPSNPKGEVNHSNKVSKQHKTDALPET", "data": [{"binder": "B1", "values": [{"measurement": "Kd", "value": "1.4 to 1.7", "unit": "µM"}]}]}
